Experimental data: US7071384B2, “Methods for commercial production of heterologous laccase in plant tissue and extraction of the laccase from plant seed” (Genencor International, Inc., priority 1997, dated 2006)

Key:
[1] = Biotin inhibition of HABA binding to avidin; conditions: competitive binding of biotin and HABA to avidin
Description: The normalized absorbance value was obtained by subtracting from all the absorbance values, the value at which the absorbance change stopped.
In vivo, avidin exists as a homotetramer and its activity is to bind biotin to protect avian and reptilian eggs from pathogen invasion. Based upon this biotin-binding property, an analog of biotin, HABA, is utilized for the quantification of activity. Using the HABA binding assay, estimates of total avidin amounts in the fractions eluted from the affinity column were identical to estimates made by ELISA.

[2] = Effect of protease inhibitors on avidin stability in flaked maize kernel extract (biotin binding activity); assay type: physicochemical; conditions: control avidin dissolved in extraction buffer
Experimental: Dry maize kernels (12% MC; 500 g per batch) were first cracked using a roller mill (Ferrell-Ross, Oklahoma City, Okla.), then flaked to 0.3 mm thickness using Roskamp flaking rolls (Model K, Roskamp Mfg., Inc., Waterloo, Iowa.). The particle size distribution of flaked material was determined by sieving (see Table 1).
Twenty grams of flaked kernels were extracted with 200 ml of Tris-HCl pH 7.9 containing 500 mM NaCl, 1 mM CaCl2 with stirring for 30 min at ambient temperature. One extraction was performed in the absence of protease inhibitors (control) and one in the presence of a protease inhibitor mixture containing 10 mM 2-mercaptoethanol (2-ME), 5 mM ethylenediamine tetraacetic acid (EDTA), 0.1 mM phenylmethanesulfonyl fluoride (PMSF), and 0.2 mM Diazo-N-acetyl-N-Leu-MeO. EDTA and 2-ME were added at the beginning of the extraction, and PMSF and diazo-N-acetyl-N-Leu-MeO were added 15 minutes after the extraction began. The insoluble residue was separated by centrifugation at 20,500×g for 25 minutes at 0° C. The supernatant was filtered through four layers of cheesecloth. […] D: Residual avidin activity in cooked egg white assayed with improved sensitivity. J. Food Sci. 56:707 (1991].and for protein integrity on western blots. For a positive control, chicken egg white avidin (Sigma Chemical Co.) was dissolved in the extraction buffer and samples were taken as above for activity assays.

[3] = Isoelectric point determination; assay type: physicochemical; conditions: 10 is the highest pI that can be experimentally determined

Ki [1]: 3.2 µM
Substance: egg white: native chicken egg white avidin (Sigma Chemical Co.)
avidin activity in extraction buffer ([2]; 0 h): 88.2 µg/mL
avidin activity in extraction buffer ([2]; 1 h): 62.6 µg/mL
avidin activity in extraction buffer ([2]; 3 h): 61.1 µg/mL
avidin activity in extraction buffer ([2]; 6 h): 60.6 µg/mL
avidin activity in extraction buffer ([2]; 22 h): 59.6 µg/mL
pI [3]: 10
